# B1: Protein KHNYN (Homo sapiens), O15037 (parent)
# chain: MPTWGARPASPDRFAVSAEAENKVREQQPHVERIFSVGVSVLPKDCPDNPHIWLQLEGPKENASRAKEYLKGLCSPELQDEIHYPPKLHCIFLGAQGFFLDCLAWSTSAHLVPRAPGSLMISGLTEAFVMAQSRVEELAERLSWDFTPGPSSGASQCTGVLRDFSALLQSPGDAHREALLQLPLAVQEELLSLVQEASSGQGPGALASWEGRSSALLGAQCQGVRAPPSDGRESLDTGSMGPGDCRGARGDTYAVEKEGGKQGGPREMDWGWKELPGEEAWEREVALRPQSVGGGARESAPLKGKALGKEEIALGGGGFCVHREPPGAHGSCHRAAQSRGASLLQRLHNGNASPPRVPSPPPAPEPPWHCGDRGDCGDRGDVGDRGDKQQGMARGRGPQWKRGARGGNLVTGTQRFKEALQDPFTLCLANVPGQPDLRHIVIDGSNVAMVHGLQHYFSSRGIAIAVQYFWDRGHRDITVFVPQWRFSKDAKVRESHFLQKLYSLSLLSLTPSRVMDGKRISSYDDRFMVKLAEETDGIIVSNDQFRDLAEESEKWMAIIRERLLPFTFVGNLFMVPDDPLGRNGPTLDEFLKKPARTQGSSKAQHPSRGFAEHGKQQQGREEEKGSGGIRKTRETERLRRQLLEVFWGQDHKVDFILQREPYCRDINQLSEALLSLNF
# Variants of: B1
# Conditions: with nedd8_human NEDD8, Q15843
# Sequence of nedd8_human NEDD8, Q15843 (Q15843 whole entry): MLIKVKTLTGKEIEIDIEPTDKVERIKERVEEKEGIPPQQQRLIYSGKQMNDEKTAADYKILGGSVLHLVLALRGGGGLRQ
row,Variant,effect of a mutation on the interaction
1,W647P,decreasing interaction
2,W647A,decreasing interaction
3,K652D,decreasing interaction
4,H651F,decreasing interaction
5,R664E,decreasing interaction
6,R659E,decreasing interaction
